According to patent publication US4327178A, “Urinary kallikrein assay: specific substrates and assay method” (University of Miami, priority 1981, dated 1982):

Test system: T1, N=C(N)NCCC[C@H](NC(=O)[C@H](Cc1ccccc1)NC(=O)[C@@H]1CCCN1)C(=O)NCc1ccccc1
T1 construct: dialyzed or gel-filtered human urine in the general A1 assay
Assay: Km and Vmax of substrates with purified human urinary kallikrein (Lineweaver-Burk double reciprocal plot)
Type: biochemical
Conditions: other: 62.5 ng purified enzyme, 0.05 M tris-HCl pH 9.5, 37° C., 15 minutes
Experimental: The double reciprocal plot method of H. Lineweaver and D. Burk (J.Am.Chem.Soc. 56, 658 (1934)) was used to estimate Km and Vmax for these substrates. Purified human urinary kallikrein prepared as described by Oza, N. B. and Ryan, J., supra, was used in this study. Reactions were conducted at 37° C. for 15 minutes with 62.5 ng of enzyme and the indicated amount of substrate, in 0.05 M tris-HCl pH 9.5. Reactions were terminated by the addition of a nine-fold excess of 0.1 N NaOH. The ^3 H-labeled product was separated from substrate by extraction with an equal volume (1 ml) of toluene. A 0.5 ml aliquot of the toluene phase was transferred to a scintillation vial containing a toluene-based scintillation fluid and counted. Results for H-ProPheArg-[^3 H]-benzylamide are shown in FIG. 1, and for H-ProPheArg-[^3 H]anilide in FIG. 2. The units of l/v were nmol^-1 min. Units of l/S were μmole^-1.liter.

Substance: human urinary kallikrein (Homo sapiens)
- Km: 3.0 µM
- Vmax: 0.88 mmol/min/mg
